{"source": "paper PMC6331645", "origin": "cited, not measured here", "target": "Raf1 RBD RBD (Homo sapiens) (UniProt P04049)"}
{"substance": "KRas (from UniProt P01116)", "values": [{"measurement": "Kd", "result": 0.02, "unit": "µM"}]}
